Results published in patent US20020031818A1, “Modification of Mdm2 activity” (priority 2000, published 2002).

Key:
Mdm2 = molecular target: T1, Mdm2 (Homo sapiens, UniProt Q00987); test: In vivo sumoylation of Mdm2 in p53/Mdm2 double null cells; format: cell-based; settings: p53/Mdm2 double null cells, Flag-Mdm2, HA-Sumo-1, increasing amounts of peptide, 36 h
T1 construct: expressed in transfected cells; host or cells: p53/Mdm2 double null cells
Protocol: FIGS. 10A-10D. A. Time dependent Mdm2 sumoylation in vitro. Bacterially expressed and purified GST-Mdm2 was subjected to in vitro sumoylation reaction in the presence of E1, Ubc9, and ^35S-Sumos. Reaction was terminated after 10,30,50 or 60 minutes, Proteins were separated on 8% gel, Commassie stained, dryed and exposed overnight (upper panel). Lower panel depicts Commassie blue staining of Mdm2 forms. B. A peptide corresponding to the Ubc-9 binding site on Mdm2 decreases Mdm2 in vitro sumoylation of Mdm2 in a time-dependent manner. (Upper part) The specific Ubc-9-binding site peptide or a nonspecific peptide was added to the reaction for the indicated time periods. […] The lower panel depicts a Coomassie staining visualizing relative amounts of sumoylated and non-sumoylated forms of purified GST-Mdm2. C. The Mdm2 sumoylation assay was carried out in the presence of Ubc-9-binding site peptide (mu9bs) or a nonspecific peptide ([…]) which were added to the reaction at the indicated concentrations. […] D. A peptide corresponding to the Ubc-9 binding site on Mdm2 decreases Mdm2 sumoylation in vivo. […] Immunoprecipitated Mdm2 levels were detected using 2A10 antibodies (top). […]
FIG. 13A-13E. […] (Left) Immunoprecipitated Mdm2 was detected using monoclonal Mdm2 antibodies (2A10, left). […]

Ubc9 [1] = molecular target: T2, Ubc9 (Mus musculus, UniProt P63280); test: Ubc9 capture by peptide immobilized on AminoLink column, Western blot; format: binding; settings: peptide-bound beads incubated with cell lysates from EJ mouse fibroblast cells; Western blot with Ubc9 antibodies
T2 construct: endogenous in cells; host or cells: NIH 3T3
T2 sequence (P63280 whole entry): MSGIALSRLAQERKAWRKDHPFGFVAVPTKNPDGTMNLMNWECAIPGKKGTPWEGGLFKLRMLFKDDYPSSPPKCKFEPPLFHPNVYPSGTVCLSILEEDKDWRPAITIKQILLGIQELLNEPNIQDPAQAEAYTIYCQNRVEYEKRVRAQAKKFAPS
Protocol: (§1) FIGS. 9A and 9B. A. A peptide corresponding to aa 40-59 on Mdm2 binds Ubc9. mu9bs (Mdm2 Ubc9 binding site) corresponding to aa 40-59 of Mdm2 and its control scrambled counterpart peptide mu9sb (were immobilized on an AminoLink column [Pierce]). 50 μl of peptide-bound beads were incubated with 1 mg of cell lysates from EJ mouse fibroblast cells. Beads were washed extensively with 0.5M LiCl/TBS and eluates were separated on a 14% gel. B. Ubc9 binds to mu9bs in vivo. NIH 3T3 cells were transfected with wt or mutant Ubc9 binding site peptide. 36 h after transfection cells were lysed and lysates were immunoprecipitated with HA-antibodies directed against the HA-tag of transfected peptides. Upper panel depicts to Co-immunoprecipitation of Ubc9 with the wt but not the mutant peptide.
Immunobilization of peptides to an AminoLink® column (Pierce Biochemical) was carried out exactly according to the manufacturer's protocol. In brief, column was equilibrated with coupeling buffer and 1 column volume of solution containing 1 mg of peptide was incubated with gel for 6 h. Later column was drained and washed with coupeling buffer. […]
To further assess the role of the Ubc-9 binding domain in Mdm2 sumoylation, a peptide that corresponds to aa 40-59 of Mdm2 was synthesized. […] Beads coupled to the peptides were incubated with cell lysates and bound proteins were analyzed in Western blots using antibodies to Ubc9.

GST-Mdm2 = molecular target: T3, GST-Mdm2 (Homo sapiens, UniProt Q00987); test: In vitro conjugation of SUMO-1 to GST-Mdm2 (in vitro sumoylation); format: biochemical
T3 construct: made in house
T3 sequence (Q00987 whole entry): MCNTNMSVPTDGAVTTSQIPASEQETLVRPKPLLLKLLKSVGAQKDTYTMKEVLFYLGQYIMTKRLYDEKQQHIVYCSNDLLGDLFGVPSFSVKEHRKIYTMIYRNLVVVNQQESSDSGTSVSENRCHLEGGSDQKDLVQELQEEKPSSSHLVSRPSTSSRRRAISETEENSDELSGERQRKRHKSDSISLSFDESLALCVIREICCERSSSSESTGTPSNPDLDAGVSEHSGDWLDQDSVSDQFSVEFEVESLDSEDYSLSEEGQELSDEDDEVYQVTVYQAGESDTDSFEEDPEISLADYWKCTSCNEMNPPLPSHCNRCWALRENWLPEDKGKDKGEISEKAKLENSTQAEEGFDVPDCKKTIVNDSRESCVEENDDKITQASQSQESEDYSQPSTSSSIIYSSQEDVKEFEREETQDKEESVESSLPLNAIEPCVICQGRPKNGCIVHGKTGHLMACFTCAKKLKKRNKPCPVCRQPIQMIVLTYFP
Protocol: A. Time dependent Mdm2 sumoylation in vitro. Bacterially expressed and purified GST-Mdm2 was subjected to in vitro sumoylation reaction in the presence of E1, Ubc9, and ^35S-Sumos. Reaction was terminated after 10,30,50 or 60 minutes, Proteins were separated on 8% gel, Commassie stained, dryed and exposed overnight (upper panel). Lower panel depicts Commassie blue staining of Mdm2 forms. […] (Upper part) The specific Ubc-9-binding site peptide or a nonspecific peptide was added to the reaction for the indicated time periods. […] The lower panel depicts a Coomassie staining visualizing relative amounts of sumoylated and non-sumoylated forms of purified GST-Mdm2. C. The Mdm2 sumoylation assay was carried out in the presence of Ubc-9-binding site peptide (mu9bs) or a nonspecific peptide (mu9bs) which were added to the reaction at the indicated concentrations. […] Mdm2/p53 double null cells were transfected with Flag-tagged Mdm2, HA-tagged Sumo-1 and increasing amounts of the specific or nonspecific Ubc-9-peptides, respectively. Cells were harvested 36 h later and 500 μg of protein was immunoprecipitated using Mdm2 antibodies (2A10). Immunoprecipitated Mdm2 levels were detected using 2A10 antibodies (top). The same membrane was stripped and reprobed using monoclonal antibodies against Sumo-1 (Zymed, middle) to visualize the level of Sumo-1 conjugation to Mdm2 after Ubc-9-peptide expression.
A. Bacterially expressed and purified Mdm2 (1 μg) was incubated with ^32P-labeled Sumo-1, purified Aos1/Uba2 and Ubc9 (0.5 μg) for 60 min at 37° C. in conjugation buffer. For indicated time-periods in vitro translated wt or mutant p19^ARF (0.5 mg) was added to the sumoylation reactions. Upper panel depicts the amount of Sumoylated Mdm2, lower panel reveal the level of Mdm2 and Sumo-Mdm2 in Coomassie blue gel. B. Bacterially expressed and purified Mdm2 (1 μg) was incubated with in vitro-translated ^35S-Sumo, purified Aos1/Uba2 and Ubc9 (0.5 μg) for 60 min at 37° C. in conjugation buffer in the presence of the increasing amounts of bacculovirus-expressed p19^ARF (0, 0.1, 0.5, 1 μg; lanes 1-4 respectively). Bead-bound complexes were washed before being denatured in 3× Sample Buffer. Proteins were separated on 8% SDS-PAGE. Gel was stained with Coomassie blue to verify equal Mdm2 input (lower panel), dried and exposed to X-ray film, which depicts SUMO-1 conjugation to Mdm2 in the presence of the indicated p19 forms (upper panel). […] Double-null cells were transfected with Flag-tagged Mdm2 (1.5 μg), HA-tagged SUMO (1.5 μg) and p19 wt (1.5 μg). Cells were treated with MG132 (40 mM) for 5 h prior to protein preparation. […] (Left) Immunoprecipitated Mdm2 was detected using monoclonal Mdm2 antibodies (2A10, left). […]

[2] = test system: Mdm2 association with p53; test: p53 immunoprecipitation and immunoblot for bound Mdm2 form and p53 level in peptide-expressing cells; format: cell-based
Protocol: FIG. 11. Ubc9 binding affects the form of Mdm2 associated with p53. Mdm2/p53 double null cells were transfected with mu9sb or the wild type form mu9bs together with p53 and Mdm2. 36 h after transfection protein extracts were prepared and used for immunoprecipitation of p53 (using D01 antibodies). Immunoprecipitated material was analyzed via immunoblotting using antibodies to Mdm2, enabling to reveal the two major forms of Mdm2, indicated.
Therefore, we transfected human fibroblasts with mu9bs or mu9sb peptides. Immunoprecipitation of p53 was followed by Western blot analysis to determine the type and level of Mdm2 bound to p53 under each of these conditions.

Ubc9 [3] = molecular target: T2, Ubc9; test: Co-immunoprecipitation of Ubc9 with HA-tagged peptide expressed in NIH 3T3 cells; format: cell-based; settings: HA-tagged penetratin peptide vector, 36 h after transfection
Protocol: as §1
Vectors described in Example I were used in the present example. The sequence of the Ubc-9 binding domain on Mdm2 (aa 40-59, Mdm2 Ubc9 binding site; mu9bs) in wt or in a scrambled orientation (mu9sb) was cloned in frame between EcoRI and XhoI restriction sites into a pcDNA3 that carries the penetration sequence, followed by the sequence encoding the HA-tag. All Mdm2 mutants were cloned in pBluescipt KS. Mutant Ubc9C93S was a gift from Olli Jänne.
To further confirm the ability of the peptide corresponding to mu9bs to associate with Ubc9 we carried out in vivo reactions. […]

Ubc9 binding to Mdm2 = molecular target: T4, Ubc9 binding to Mdm2 (Homo sapiens, UniProt Q00987); test: In vitro binding of Ubc9 to GST-Mdm2; settings: GST-Mdm2 phosphorylated by active p38 kinase
T4 construct: made in house; host or cells: GST-Mdm2: bacteria; Ubc9: in vitro translation
T4 sequence (Q00987 whole entry): as above
Protocol: FIGS. 17A and 17B. A. p19^ARF decreases Ubc9 binding to Mdm2. Bacterially expressed and purified GST-Mdm2 (1 μg) was incubated with ^35S-labeled in vitro translated p19^ARF and Ubc9 at the indicated ratios. After 30 min of incubation GSH beads bound-GST-Mdm2 were washed and separated on a 12% SDS-PAGE. Gel was dried and subjected to autoradiograph, depicting relative amounts of Ubc9 and p19^ARF bound to Mdm2. B. Bacterially expressed and purified GST-Mdm2 (1 μg) was phosphorylated by purified form of active p38 kinase as indicated. Phosphorylated or un-phosphorylated Mdm2 was incubated for 30 min with in vitro translated UbcH5b and Ubc9 (25 μl). Beads were washed and separated on a 12% SDS-PAGE. Gel was dried and exposed to X-ray film. Position of Ubc9 and UbcH5b is shown.
A prerequisite for Mdm2 sumoylation is the association of Ubc9, the SUMO conjugating enzyme, with Mdm2, which enables subsequent conjugation of SUMO-1 to Mdm2. Inhibition of Ubc9's association with Mdm2 attenuates Mdm2 sumoylation. Given the effect of p19^ARF on Mdm2 sumoylation, we proceeded to determine whether p19^ARF may alter Ubc9 binding to Mdm2. To this end we performed an in vitro binding assay, using in vitro translated p19^ARF and Ubc-9, as indicated. […] We next assessed possible changes in Ubc9 binding to Mdm2 upon its phosphorylation by p38.

T1 sequence (Q00987 whole entry): as above

Row | capture of Ubc9 by column-coupled peptide (Ubc9 [1]) | association of expressed peptide with Ubc9 in vivo (Ubc9 [3]) | Ubc9 binding to Mdm2 upon in vitro phosphorylation of Mdm2 (Ubc9 binding to Mdm2) | Substance | degree of Mdm2 sumoylation in vivo upon peptide co-expression (Mdm2) | Mdm2 sumoylation in vitro, increasing concentrations of peptide (GST-Mdm2) | Mdm2 sumoylation in vitro, peptide added for different periods of time (GST-Mdm2; peptide present 0-50 min of 60 min reaction) | overall level of p53 expression [2] | form of Mdm2 (75 kDa non-sumoylated / 90 kDa sumoylated) associated with p53 ([2]; peptide expression, p53 immunoprecipitation)
1 | captured Ubc9 | associated with Ubc9 |  | mu9bs: peptide that corresponds to aa 40-59 of Mdm2 (mdm2 Ubc9 binding site) (SVGAQKDTYTMKEVLFYLGQ) | dose-dependent decrease in the degree of Mdm2 sumoylation in vivo | dose-dependent decrease of Mdm2 sumoylation | sufficient to attenuate Mdm2 sumoylation in a manner that coincided with the length of the incubation | increased level of p53 | p53 association only with the non-sumoylated form of Mdm2
2 |  |  | marked decrease in Ubc9 binding to Mdm2 | p38: purified active p38 kinase that phosphorylates Mdm2 |  |  |  |  | 
